{
  "source": "patent US20230095558A1",
  "about": "(SPARX BIOTECH JIANGSU, published 2023)",
  "note": "No end group written: not given here.",
  "data": [
    {"target": "T1, TIM3 protein (cat #CHI-MF-210T3-0050, Chimerigen)", "T1 construct": "Bought recombinant protein used in SPR; also called TLM3 protein", "experiment": "SPR (OpenSPR), TIM3 protein immobilised on chip, peptide in flow", "procedure": "SPR assay: Affinity identification between the TIM3-targeting binding peptides and TIM3 was performed by immobilizing TIM3 protein (50 μg/mL) on the surface of a nanogold sensor chip upon activation of EDC/NHS. […] The competitive binding ability of the TIM3-targeting binding peptides to the ligand was identified by immobilizing the Galectin-9 protein (25 μg/mL) on a sensor chip at a detection concentration of 100 μg/mL for the TIM3-targeting binding peptides, and at a concentration of the mixed sample of 100 μg/mL TIM3-targeting binding peptides and 10 μg/mL TIM3 protein. The detection sample was loaded at a flow rate of 20 μL/min for about 7 min according to the instrument instructions. The KD, ka and kd values were calculated and analyzed by Trace Drawer Evaluation (version 2.0) software.", "units": {"Kd": "µM", "koff": "s⁻¹", "kon": "M⁻¹ s⁻¹"}, "values": [
      {"binder": "WQQNNPHLWDVFLGVPRTTE (Synthetic 20-mer from phage display screening)", "note": "[K5-20-peptide (targeting TIM3)]", "Kd": 18, "koff": 0.016},
      {"binder": "SPFYYSGHQWVPHPRQAASY (Synthetic 20-mer from phage display screening)", "note": "[K10-20-peptide (targeting TIM3)]", "Kd": 26.1, "koff": 0.023},
      {"binder": "LTPHKHHKHLHA (Synthetic 12-mer from phage display screening)", "note": "[P20-12-peptide (targeting TIM3)]", "Kd": 24.3, "koff": 0.00625},
      {"binder": "GSWNTFRAQPTI (Synthetic 12-mer from phage display screening)", "note": "[P24-12-peptide (targeting TIM3)]", "Kd": 0.095, "koff": "1.69e-05"},
      {"binder": "FTYAHPVSHRWESSVHVDQW (Synthetic 20-mer from phage display screening)", "note": "[K2-20-peptide (targeting TIM3)]", "Kd": 227, "koff": 0.0103},
      {"binder": "ADFRVMADMSMY (Synthetic 12-mer from phage display screening)", "note": "[P29-12-peptide (targeting TIM3)]", "Kd": 200, "koff": 0.00747},
      {"binder": "HDAFPRPHLFRN (not fully specified)", "note": "[P1301-12-peptide (targeting TIM3)]", "Kd": 80.1, "koff": 0.00428},
      {"binder": "ALWPSSSMSSTI (Synthetic 12-mer from phage display screening)", "note": "[P1303-12-peptide (targeting TIM3)]", "Kd": 26.3, "koff": 0.00308, "kon": 117},
      {"binder": "SHDTRSPFTWGR (Synthetic 12-mer from phage display screening)", "note": "[P1307-12-peptide (targeting TIM3)]", "Kd": 117, "koff": 0.00789},
      {"binder": "SQEVFAWTFSPRWTTAPKAL (Synthetic 20-mer from phage display screening)", "note": "[K3-20-peptide (targeting TIM3)]", "Kd": 20.1, "koff": 0.0132}
    ]}
  ]
}
